Article PMC10092650
Where two headings read alike, the source gives them in different places.

Key:
[1] = target: doubly stabilized microtubules (GMPCPP and paclitaxel) (UniProt Q6B856); test: co-sedimentation
[2] = target: GMPCPP-stabilized HyLite 647/biotin-labeled microtubules (bovine) (UniProt Q6B856); test: single-molecule TIRF microscopy
[3] = target: GMPCPP-stabilized HyLite 647/biotin-labeled microtubules (bovine) (UniProt Q6B856); test: single-molecule TIRF microscopy; remark: listed apart in the source
[4] = target: X-rhodamine-labeled dynamic microtubules nucleated from GMPCPP-stabilized Cy5 MT seeds (UniProt Q6B856); test: dynamic MT seed assay
[5] = target: doubly stabilized microtubules (GMPCPP and paclitaxel) (UniProt Q6B856); test: co-sedimentation; remark: listed apart in the source

Substance: GFP-Kif18B (full-length human Kif18B N-terminally tagged with EGFP) (from UniProt Q86Y91-6 1-833) (natural protein)
- percent pelleted with MTs [1]: > 90%
- dwell time at MT plus ends [2]: 5.56 s
- mean dwell time on the MT lattice [2]: 1.77 s
- dwell time at MT plus ends [3]: 5.39 s
- mean dwell time on the MT lattice [3]: 2.3 s
- percent of two-sided MTs with GFP-Kif18B binding events, with importin α/β [4]: 73%
- percent of two-sided MTs with bound GFP-Kif18B [4]: 46%
- percent pelleted with MTs [5]: 79%

Substance: YPet-Kif18B(605-828)-His6 (from UniProt Q86Y91-6 605-828) (domain or fragment)
- fold increase in the Kd for MTs with importin α/β against without [1]: 9 fold

Substance: YPet-Kif18B(605-828)-NLS1/2 (from UniProt Q86Y91-6 605-828) (domain or fragment)
- fold increase in the Kd for MT binding relative to YPet-Kif18B(605-828) [1]: 2 fold
